According to IntAct's records for PubMed 11001931:

Molecular target: fhl2_human FHL2 (UniProt Q14192)
Sequence (Q14192 whole entry): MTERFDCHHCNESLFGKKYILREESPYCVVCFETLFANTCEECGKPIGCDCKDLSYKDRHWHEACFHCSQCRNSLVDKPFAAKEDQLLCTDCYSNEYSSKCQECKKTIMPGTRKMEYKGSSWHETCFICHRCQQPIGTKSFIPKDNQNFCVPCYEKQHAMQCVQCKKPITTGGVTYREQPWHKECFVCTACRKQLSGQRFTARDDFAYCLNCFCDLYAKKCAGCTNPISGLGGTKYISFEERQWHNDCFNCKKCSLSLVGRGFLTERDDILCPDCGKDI

Sequence of Presenilin-2 (Homo sapiens), P49810 L277A (P49810 whole entry L277A): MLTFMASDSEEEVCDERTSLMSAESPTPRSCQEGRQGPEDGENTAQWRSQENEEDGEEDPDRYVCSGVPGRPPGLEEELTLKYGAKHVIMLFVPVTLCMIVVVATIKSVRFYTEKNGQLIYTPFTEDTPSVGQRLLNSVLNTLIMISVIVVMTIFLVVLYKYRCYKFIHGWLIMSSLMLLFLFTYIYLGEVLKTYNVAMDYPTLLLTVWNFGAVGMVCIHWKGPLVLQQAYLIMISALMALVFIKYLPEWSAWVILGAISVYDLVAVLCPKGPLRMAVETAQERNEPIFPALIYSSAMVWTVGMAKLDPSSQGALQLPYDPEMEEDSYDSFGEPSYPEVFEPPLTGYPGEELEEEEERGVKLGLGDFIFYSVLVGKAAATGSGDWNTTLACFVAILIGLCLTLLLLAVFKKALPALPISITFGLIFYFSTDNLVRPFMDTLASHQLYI
Sequence of Presenilin-2 (Homo sapiens), P49810 E279A (P49810 whole entry E279A): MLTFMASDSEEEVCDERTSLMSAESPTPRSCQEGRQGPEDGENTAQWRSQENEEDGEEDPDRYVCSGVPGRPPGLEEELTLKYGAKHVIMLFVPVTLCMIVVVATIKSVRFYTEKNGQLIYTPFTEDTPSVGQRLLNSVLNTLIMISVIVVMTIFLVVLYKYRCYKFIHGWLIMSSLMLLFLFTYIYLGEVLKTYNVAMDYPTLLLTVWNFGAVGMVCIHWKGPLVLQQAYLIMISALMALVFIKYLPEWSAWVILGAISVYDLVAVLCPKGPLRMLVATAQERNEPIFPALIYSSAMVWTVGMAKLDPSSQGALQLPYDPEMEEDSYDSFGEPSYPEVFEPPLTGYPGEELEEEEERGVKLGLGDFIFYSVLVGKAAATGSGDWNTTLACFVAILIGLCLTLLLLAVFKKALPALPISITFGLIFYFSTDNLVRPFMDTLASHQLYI
Sequence of Presenilin-2 (Homo sapiens), P49810 P273A (P49810 whole entry P273A): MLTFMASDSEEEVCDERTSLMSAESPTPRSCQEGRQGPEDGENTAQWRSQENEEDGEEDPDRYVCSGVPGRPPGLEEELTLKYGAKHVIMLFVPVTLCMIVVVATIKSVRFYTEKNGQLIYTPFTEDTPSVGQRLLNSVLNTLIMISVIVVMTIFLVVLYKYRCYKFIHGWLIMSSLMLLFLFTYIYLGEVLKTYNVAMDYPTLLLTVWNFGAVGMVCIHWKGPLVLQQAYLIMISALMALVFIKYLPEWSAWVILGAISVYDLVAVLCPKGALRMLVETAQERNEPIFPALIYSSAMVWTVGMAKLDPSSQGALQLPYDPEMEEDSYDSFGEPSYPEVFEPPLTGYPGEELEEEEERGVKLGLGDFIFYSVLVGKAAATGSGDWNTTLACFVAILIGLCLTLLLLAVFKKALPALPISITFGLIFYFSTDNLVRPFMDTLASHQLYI
Sequence of Presenilin-2 (Homo sapiens), P49810 P270A (P49810 whole entry P270A): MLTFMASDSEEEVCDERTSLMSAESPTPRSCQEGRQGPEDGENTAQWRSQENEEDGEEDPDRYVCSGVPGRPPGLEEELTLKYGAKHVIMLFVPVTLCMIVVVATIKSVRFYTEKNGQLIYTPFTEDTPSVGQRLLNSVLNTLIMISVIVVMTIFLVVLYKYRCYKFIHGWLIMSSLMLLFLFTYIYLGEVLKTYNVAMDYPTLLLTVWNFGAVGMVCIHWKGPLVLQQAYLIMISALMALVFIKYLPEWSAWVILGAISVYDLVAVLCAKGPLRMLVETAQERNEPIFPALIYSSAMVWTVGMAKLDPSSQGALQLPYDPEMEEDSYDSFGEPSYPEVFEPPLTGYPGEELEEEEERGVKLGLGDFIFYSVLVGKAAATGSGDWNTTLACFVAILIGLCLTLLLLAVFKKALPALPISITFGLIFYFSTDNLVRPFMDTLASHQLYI
Sequence of Presenilin-2 (Homo sapiens), P49810 R275A (P49810 whole entry R275A): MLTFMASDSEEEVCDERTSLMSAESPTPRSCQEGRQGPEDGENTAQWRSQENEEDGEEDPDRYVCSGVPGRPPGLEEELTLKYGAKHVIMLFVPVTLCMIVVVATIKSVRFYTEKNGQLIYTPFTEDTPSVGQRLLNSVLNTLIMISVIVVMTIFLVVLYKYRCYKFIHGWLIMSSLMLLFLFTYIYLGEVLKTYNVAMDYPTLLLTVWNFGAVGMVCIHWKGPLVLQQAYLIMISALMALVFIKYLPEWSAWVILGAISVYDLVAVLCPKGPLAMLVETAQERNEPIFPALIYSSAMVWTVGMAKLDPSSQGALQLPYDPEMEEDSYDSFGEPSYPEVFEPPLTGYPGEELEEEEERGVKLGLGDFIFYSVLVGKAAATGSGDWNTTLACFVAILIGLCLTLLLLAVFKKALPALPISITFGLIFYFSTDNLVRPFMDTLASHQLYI
Sequence of Presenilin-2 (Homo sapiens), P49810 G272A (P49810 whole entry G272A): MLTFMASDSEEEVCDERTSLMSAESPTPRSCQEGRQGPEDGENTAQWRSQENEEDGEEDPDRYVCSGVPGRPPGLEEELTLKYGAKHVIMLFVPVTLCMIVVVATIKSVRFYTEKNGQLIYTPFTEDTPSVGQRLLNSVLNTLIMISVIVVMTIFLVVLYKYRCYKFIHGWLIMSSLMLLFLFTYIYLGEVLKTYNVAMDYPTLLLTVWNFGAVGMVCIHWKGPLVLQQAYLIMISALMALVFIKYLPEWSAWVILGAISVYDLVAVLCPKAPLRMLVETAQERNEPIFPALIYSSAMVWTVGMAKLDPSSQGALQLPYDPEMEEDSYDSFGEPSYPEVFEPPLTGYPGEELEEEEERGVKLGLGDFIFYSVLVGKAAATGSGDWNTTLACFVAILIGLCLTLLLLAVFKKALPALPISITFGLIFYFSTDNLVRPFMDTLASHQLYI
Sequence of Presenilin-2 (Homo sapiens), P49810 V278A (P49810 whole entry V278A): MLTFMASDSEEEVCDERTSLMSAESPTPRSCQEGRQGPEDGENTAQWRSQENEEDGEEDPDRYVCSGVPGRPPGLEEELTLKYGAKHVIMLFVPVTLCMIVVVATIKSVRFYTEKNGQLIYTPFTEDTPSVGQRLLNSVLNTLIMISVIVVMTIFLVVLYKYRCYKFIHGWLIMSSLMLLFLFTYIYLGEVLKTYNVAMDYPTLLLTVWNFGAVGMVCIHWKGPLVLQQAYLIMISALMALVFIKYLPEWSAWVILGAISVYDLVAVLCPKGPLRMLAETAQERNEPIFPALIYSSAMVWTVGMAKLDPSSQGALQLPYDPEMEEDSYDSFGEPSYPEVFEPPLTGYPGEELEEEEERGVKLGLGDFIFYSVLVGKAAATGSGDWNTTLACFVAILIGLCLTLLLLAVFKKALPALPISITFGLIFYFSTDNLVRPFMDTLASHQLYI
Sequence of Presenilin-2 (Homo sapiens), P49810 L274A (P49810 whole entry L274A): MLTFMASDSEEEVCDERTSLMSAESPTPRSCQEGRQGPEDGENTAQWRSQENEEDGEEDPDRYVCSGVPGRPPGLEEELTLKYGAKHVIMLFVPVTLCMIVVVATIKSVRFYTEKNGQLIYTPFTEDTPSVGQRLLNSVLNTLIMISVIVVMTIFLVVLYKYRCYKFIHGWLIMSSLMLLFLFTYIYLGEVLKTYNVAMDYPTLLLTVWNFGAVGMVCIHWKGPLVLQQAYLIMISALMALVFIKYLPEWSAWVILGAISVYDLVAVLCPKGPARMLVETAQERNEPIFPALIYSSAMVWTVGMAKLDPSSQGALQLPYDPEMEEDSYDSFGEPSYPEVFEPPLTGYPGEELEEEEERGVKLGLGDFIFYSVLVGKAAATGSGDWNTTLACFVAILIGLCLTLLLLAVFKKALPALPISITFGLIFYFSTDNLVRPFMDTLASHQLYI
Sequence of Presenilin-2 (Homo sapiens), P49810 M276A (P49810 whole entry M276A): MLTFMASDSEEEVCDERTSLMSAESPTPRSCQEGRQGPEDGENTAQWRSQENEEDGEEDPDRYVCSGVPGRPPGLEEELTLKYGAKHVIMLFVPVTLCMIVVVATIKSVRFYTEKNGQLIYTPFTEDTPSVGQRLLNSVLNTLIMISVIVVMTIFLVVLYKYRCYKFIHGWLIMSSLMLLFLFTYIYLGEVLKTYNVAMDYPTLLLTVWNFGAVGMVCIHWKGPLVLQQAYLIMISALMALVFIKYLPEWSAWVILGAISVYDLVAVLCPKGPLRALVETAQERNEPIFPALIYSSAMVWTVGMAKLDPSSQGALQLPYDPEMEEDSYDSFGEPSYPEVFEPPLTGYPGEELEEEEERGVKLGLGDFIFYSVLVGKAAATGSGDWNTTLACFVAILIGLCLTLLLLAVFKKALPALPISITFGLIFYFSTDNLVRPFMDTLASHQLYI
Sequence of Presenilin-2 (Homo sapiens), P49810 K271A (P49810 whole entry K271A): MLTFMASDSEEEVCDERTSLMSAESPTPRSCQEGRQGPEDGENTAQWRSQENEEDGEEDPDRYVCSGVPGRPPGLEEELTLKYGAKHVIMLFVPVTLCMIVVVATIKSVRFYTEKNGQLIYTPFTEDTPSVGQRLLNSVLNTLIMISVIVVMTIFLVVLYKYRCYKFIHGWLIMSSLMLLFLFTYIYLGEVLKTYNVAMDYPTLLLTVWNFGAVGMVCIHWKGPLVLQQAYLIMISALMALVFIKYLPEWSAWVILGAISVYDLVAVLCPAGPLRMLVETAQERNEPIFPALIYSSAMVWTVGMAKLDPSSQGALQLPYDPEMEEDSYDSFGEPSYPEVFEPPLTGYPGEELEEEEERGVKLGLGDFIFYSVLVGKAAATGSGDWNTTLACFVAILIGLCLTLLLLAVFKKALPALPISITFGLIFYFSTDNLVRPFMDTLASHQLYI

Row | Substance | effect of a mutation on the interaction
1 | Presenilin-2 (Homo sapiens), P49810 E279A | decreasing interaction strength
2 | Presenilin-2 (Homo sapiens), P49810 G272A | decreasing interaction strength
3 | Presenilin-2 (Homo sapiens), P49810 K271A | with no effect
4 | Presenilin-2 (Homo sapiens), P49810 L274A | decreasing interaction strength
5 | Presenilin-2 (Homo sapiens), P49810 L277A | decreasing interaction strength
6 | Presenilin-2 (Homo sapiens), P49810 M276A | decreasing interaction strength
7 | Presenilin-2 (Homo sapiens), P49810 P270A | decreasing interaction strength
8 | Presenilin-2 (Homo sapiens), P49810 P273A | decreasing interaction strength
9 | Presenilin-2 (Homo sapiens), P49810 R275A | disrupting interaction strength
10 | Presenilin-2 (Homo sapiens), P49810 V278A | decreasing interaction strength
